Experimental data: paper PMC11302681, “Structural Basis of Directional Switching by the Bacterial Flagellum” (Research Square, 2023)

T1: FliF (S. Typhimurium, MS-ring protein) (S. Typhimurium (endogenous in strains …, UniProt P15928 1-560))
T1 construct: FliF, flagellar M-ring protein of Salmonella enterica serovar Typhimurium; endogenous protein in basal bodies; only its C-terminus (residues 523–560) is described in the C-ring models; also called FliFC; FliF C-terminus; source: endogenous, S. Typhimurium strains TH25455 (CCW locked) and TH25631 (CW locked), in purified basal bodies
T1 sequence (looked up): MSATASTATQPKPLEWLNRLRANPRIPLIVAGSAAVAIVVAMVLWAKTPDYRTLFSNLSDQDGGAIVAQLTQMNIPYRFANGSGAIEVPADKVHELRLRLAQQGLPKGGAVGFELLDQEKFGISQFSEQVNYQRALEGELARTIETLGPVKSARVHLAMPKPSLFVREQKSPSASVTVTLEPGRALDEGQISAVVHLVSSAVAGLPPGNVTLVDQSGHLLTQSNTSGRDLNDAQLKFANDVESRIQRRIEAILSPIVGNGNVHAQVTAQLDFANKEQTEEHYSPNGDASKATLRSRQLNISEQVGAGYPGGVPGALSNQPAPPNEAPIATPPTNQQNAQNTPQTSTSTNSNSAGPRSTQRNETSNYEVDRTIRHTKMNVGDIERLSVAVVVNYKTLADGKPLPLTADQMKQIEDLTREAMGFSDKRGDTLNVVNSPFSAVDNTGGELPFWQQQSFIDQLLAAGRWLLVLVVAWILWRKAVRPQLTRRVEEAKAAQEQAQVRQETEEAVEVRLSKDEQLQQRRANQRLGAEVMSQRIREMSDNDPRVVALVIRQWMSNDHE

B1: FliN (S. Typhimurium) (natural protein, UniProt P26419 1-137, looked up)
chain: MSDMNNPSDENTGALDDLWADALNEQKATTTKSAADAVFQQLGGGDVSGAMQDIDLIMDIPVKLTVELGRTRMTIKELLRLTQGSVVALDGLAGEPLDILINGYLIAQGEVVVVADKYGVRITDIITPSERMRRLSR
notes: FliN, flagellar motor switch protein of Salmonella enterica serovar Typhimurium; endogenous protein in basal bodies; Three copies of FliN in each C-ring subunit; also called FliN3; source: endogenous, S. Typhimurium strains TH25455 (CCW locked) and TH25631 (CW locked), in purified basal bodies
B2: C. sporogenes MotA (residues 1–262, of the MotA1–262-FliG239–333 fusion) (domain or fragment, Clostridium sporogenes, UniProt A0A7U4JQH9 1-262, looked up)
chain: MKKRDILTPIGFVLCFGLVLWGMASGGSNLKVFWDVASVFITIGGSMAAMLITYPMDEFKRLLIVIRQTFKDNGMSNIDVIQNFVDLSRKARREGLLSLEDAINNLTDDYMKKGLRMVVDGIEPETIREIMELEIDEMEKRHKSGADMLKTWGGYAPAFGMVGTLIGLIQMLANLTDSSTIASGMGKALITTFYGSLMANAVFNPMGANLMFKSGVEATTREMVLEGVLAIQSGVNPRIMEEKLVSYLSPPERQAYSKVQVS
notes: MotA of Clostridium sporogenes 388 (DSM 795), residues 1–262; several linker lengths were tried) to FliG 239–333 on one chain; also called MotA component; source: E. coli MT56, pT12 vector, co-expressed with MotB, purified (LMNG, Strep-Tactin XT, Superose 6)
B3: FliG-ΔPAA (S. Typhimurium, CW-locking deletion of residues 169–171) (natural protein)
chain: MSNLSGTDKSVILLMTIGEDRAAEVFKHLSTREVQALSTAMANVRQISNKQLTDVLSEFEQEAEQFAALNINANEYLRSVLVKALGEERASSLLEDILETRDTTSGIETLNFMEPQSAADLIRDEHPQIIATILVHLKRSQAADILALFDERLRHDVMLRIATFGGVQLAELTEVLNGLLDGQNLKRSKMGGVRTAAEIINLMKTQQEEAVITAVREFDGELAQKIIDEMFLFENLVDVDDRSIQRLLQEVDSESLLIALKGAEPPLREKFLRNMSQRAADILRDDLANRGPVRLSQVENEQKAILLIVRRLAETGEMVIGSGEDTYV
notes: FliG of Salmonella enterica serovar Typhimurium with the CW-locking PAA deletion at residues 169–171; also called CW-locked mutant; source: endogenous locus mutant, S. Typhimurium strain TH25631 (CW locked), in purified basal bodies (sucrose gradient); copies: 34
B4: FliM (S. Typhimurium) (natural protein, UniProt P26418 1-334, looked up)
chain: MGDSILSQAEIDALLNGDSDTKDEPTPGIASDSDIRPYDPNTQRRVVRERLQALEIINERFARQFRMGLFNLLRRSPDITVGAIRIQPYHEFARNLPVPTNLNLIHLKPLRGTGLVVFSPSLVFIAVDNLFGGDGRFPTKVEGREFTHTEQRVINRMLKLALEGYSDAWKAINPLEVEYVRSEMQVKFTNITTSPNDIVVNTPFHVEIGNLTGEFNICLPFSMIEPLRELLVNPPLENSRHEDQNWRDNLVRQVQHSELELVANFADIPLRLSQILKLKPGDVLPIEKPDRIIAHVDGVPVLTSQYGTVNGQYALRVEHLINPILNSLNEEQPK
notes: FliM, flagellar motor switch protein of Salmonella enterica serovar Typhimurium; endogenous protein in basal bodies; The extreme N-terminus is disordered in both structures; also called FliMM; FliMC; source: endogenous, S. Typhimurium strains TH25455 (CCW locked) and TH25631 (CW locked), in purified basal bodies; copies: 34
B5: C. sporogenes FliG C-terminal domain (residues 239–333, of the MotA1–262-FliG239–333 fusion) (domain or fragment)
chain: VFEDIITLDDVAIQRVLREVETKDLALALKGSSEEVANVIFRNQSKRAASSLKEDIEFLGPVRIMDVEKAQQGIVSIIRRLDEAGEIVISRGGED
B6: FliG (S. Typhimurium, wild type, in the CCW-locked C-ring) (natural protein, UniProt P0A1J9 1-331, looked up)
chain: MSNLSGTDKSVILLMTIGEDRAAEVFKHLSTREVQALSTAMANVRQISNKQLTDVLSEFEQEAEQFAALNINANEYLRSVLVKALGEERASSLLEDILETRDTTSGIETLNFMEPQSAADLIRDEHPQIIATILVHLKRSQAADILALFDERLRHDVMLRIATFGGVQPAALAELTEVLNGLLDGQNLKRSKMGGVRTAAEIINLMKTQQEEAVITAVREFDGELAQKIIDEMFLFENLVDVDDRSIQRLLQEVDSESLLIALKGAEPPLREKFLRNMSQRAADILRDDLANRGPVRLSQVENEQKAILLIVRRLAETGEMVIGSGEDTYV
notes: FliG, flagellar motor switch protein of Salmonella enterica serovar Typhimurium; endogenous protein in basal bodies; residues up to 331 are named; One FliG in each of the about 34 C-ring subunits (C34 is the dominant class); also called FliGN; FliGM; source: endogenous, S. Typhimurium strain TH25455 (CCW locked, ΔcheY), in purified basal bodies (sucrose gradient); copies: 34

Experiments:
[1] = biological target: C. sporogenes MotB with C-terminal Twin-Strep tag (Clostridium sporogenes); assay: cryo-EM structure; C. sporogenes MotA1–262-FliG239–333 fusion co-expressed with MotB-Twin-Strep in E. coli, purified in LMNG; 2.4 Å map
[2] = biological target: B4; assay: cryo-EM structure; intact flagellar basal bodies with C-rings from S. Typhimurium TH25455 (ΔcheY, CCW locked), assembled in cells and purified on a sucrose gradient in Triton X-100; C34 class, symmetry expansion and local refinement around 3 subunits, 3.6 Å global; details: both partners purified
[3] = biological target: the molecule itself; assay: cryo-EM structure; intact flagellar basal bodies with C-rings from S. Typhimurium TH25631 (fliG-ΔPAA, CW locked), assembled in cells and purified on a sucrose gradient in Triton X-100; C34 class, symmetry expansion and local refinement around 3 subunits, 4.0 Å global
[4] = biological target: the molecule itself; assay: cryo-EM structure; C. sporogenes MotA1–262-FliG239–333 fusion co-expressed with MotB-Twin-Strep in E. coli, purified in LMNG; 2.4 Å map
[5] = biological target: T1, FliF (S. Typhimurium, MS-ring protein); assay: cryo-EM structure; intact flagellar basal bodies with C-rings from S. Typhimurium TH25631 (fliG-ΔPAA, CW locked), assembled in cells and purified on a sucrose gradient in Triton X-100; C34 class, symmetry expansion and local refinement around 3 subunits, 4.0 Å global; details: both partners purified
[6] = biological target: B4; assay: as above; details: both partners purified
[7] = biological target: the molecule itself; assay: cryo-EM structure; intact flagellar basal bodies with C-rings from S. Typhimurium TH25455 (ΔcheY, CCW locked), assembled in cells and purified on a sucrose gradient in Triton X-100; C34 class, symmetry expansion and local refinement around 3 subunits, 3.6 Å global
[8] = biological target: C. sporogenes MotA5MotB2 stator complex (Clostridium sporogenes); assay: cryo-EM structure; C. sporogenes MotA1–262-FliG239–333 fusion co-expressed with MotB-Twin-Strep in E. coli, purified in LMNG; 2.4 Å map
[9] = biological target: T1, FliF (S. Typhimurium, MS-ring protein); assay: cryo-EM structure; intact flagellar basal bodies with C-rings from S. Typhimurium TH25455 (ΔcheY, CCW locked), assembled in cells and purified on a sucrose gradient in Triton X-100; C34 class, symmetry expansion and local refinement around 3 subunits, 3.6 Å global; details: both partners purified

How did the stoichiometry N [1] turn out when “C. sporogenes MotB with C-terminal Twin-Strep tag (natural protein)” was run?
Its stoichiometry N is 2.

B1 was tested. Which “stoichiometry N” value [2] did it give?
The value was 3.

Does B1 bind [3]?
Result: binds

B2 was tested. Which “stoichiometry N” value [4] did it give?
Its value is 5.

Which “stoichiometry N” value [3] does the source give for B3 here?
Its value is 34.

Does B3 bind [5]?
Result: binds

Does B3 bind [6]?
Result: binds

Does B4 bind [7]?
Result: binds

Which stoichiometry N [8] does the source give for B5 here?
Its stoichiometry N is < 3.

Which results are given for B6?
stoichiometry N [7]: 34; binding result [9]: binds; binding result [2]: binds
